Publication PMC10216065 (Biomolecules, 2023)

B2: Mycobacterium tuberculosis SufS (Rv1464) (enzyme)
chain: GMTASVNSLDLAAIRADFPILKRIMRGGNPLAYLDSGATSQRPLQVLDAEREFLTASNGAVHRGAHQLMEEATDAYEQGRADIALFVGADTDELVFTKNATEALNLVSYVLGDSRFERAVGPGDVIVTTELEHHANLIPWQELARRTGATLRWYGVTDDGRIDLDSLYLDDRVKVVAFTHHSNVTGVLTPVSELVSRAHQSGALTVLDACQSVPHQPVDLHELGVDFAAFSGHKMLGPNGIGVLYGRRELLAQMPPFLTGGSMIETVTMEGATYAPAPQRFEAGTPMTSQVVGLAAAARYLGAIGMAAVEAHERELVAAAIEGLSGIDGVRILGPTSMRDRGSPVAFVVEGVHAHDVGQVLDDGGVAVRVGHHCALPLHRRFGLAATARASFAVYNTADEVDRLVAGVRRSRHFFGRA

What was measured:
[1] = target: B2; assay: crystal structure; conditions: both partners purified
SEC-MALS = target: the molecule itself; assay: SEC-MALS

B1: Mycobacterium tuberculosis SufU (Rv1465), tag state not told (natural protein)
chain: GSHMVTLRLEQIYQDVILDHYKHPQHRGLREPFGAQVYHVNPICGDEVTLRVALSEDGTRVTDVSYDGQGCSISQAATSVLTEQVIGQRVPRALNIVDAFTEMVSSRGTVPGDEDVLGDGVAFAGVAKYPARVKCALLGWMAFKDALAQASEAFEEVTDERNQRTG
binding result [1]: binds

B2
stoichiometry N (SEC-MALS): 2
